B1: OR4K15 (parent)
chain: GUUAACGGUCAUAGGCCAUGGAAACUAGGAGCACCAUUUCGCUGCCAGUGAAGAAAUGAACAAAGAAAAUCUGGGCCAGGCAGGCAUCAAAAGAAAUAGUCUUGCGCUCAACCAGAAAGUCUGUAAUCAUUUUAAGGGUA

Variants of B1 are the subject of the data set. Description: self-cleavage, relative activity (ratio to wild type); higher = more cleavage; in vitro, sequencing; the parent is a self-cleaving ribozyme.
Consider GUUAACGGUCAUAGGCCAUGGAAACUAGGAGCACCAUUUCGCUGCCAGUGAAGAAAUGAACAAAGGAAAUCUGGGCCAGGCAGGCAUCAAAAGAAAUAGUCUUCCGCUCAACCAGAAAGUCUGUAAUCAUUUUAAGGGUA [A66G G104C], for which the self-cleavage is 0.01.
In the case of GUUAACGGUCAUAGGCCAUGGAAACUAGGAGCACCAUUUCGCUGCCAGUGAAGAAAUGAACAAAGGAAAUCCGGGCCAGGCAGGCAUCAAAAGAAAUAGUCUUGCGCUCAACCAGAAAGUCUGUAAUCAUUUUAAGGGUA [A66G U72C] it was 0.09; in that of GUUAACGGUCAUAGGCCAUGGAAACUAGGAGCACCAUUUCGCUGCCAGUGAAGAAAUGAACAAAGGAAAUCUGGGCCAGGCAGGCAUCAAGAGAAAUAGUCUUGCGCUCAACCAGAAAGUCUGUAAUCAUUUUAAGGGUA [A66G A91G], 1.04.
In the case of GUUAACGGUCAUAGGCCAUGGAAACUAGGAGCACCAUUUCGCUGCCAGUGAAGAAAUGAACAAAGGAAAUCUAGGCCAGGCAGGCAUCAAAAGAAAUAGUCUUGCGCUCAACCAGAAAGUCUGUAAUCAUUUUAAGGGUA [A66G G73A] it was 0.15; in that of GUUAACGGUCAUAGGCCAUGGAAACUAGGAGCACCAUUUCGCUGCCAGUGAAGAAAUGAACAAAGGAAAUCUGGGCCAGGCUGGCAUCAAAAGAAAUAGUCUUGCGCUCAACCAGAAAGUCUGUAAUCAUUUUAAGGGUA [A66G A82U], 0.29.
As to GUUAACGGUCAUAGGCCAUGGAAACUAGGAGCACCAUUUCGCUGCCAGUGAAGAAAUGAACAAAGGAAAUCUGGGCCAGGCAGGCAUCUAAAGAAAUAGUCUUGCGCUCAACCAGAAAGUCUGUAAUCAUUUUAAGGGUA [A66G A89U], the self-cleavage worked out at 1.97.
The value for GUUAACGGUCAUAGGCCAUGGAAACUAGGAGCACCAUUUCGCUGCCAGUGAAGAAAUGAACAAAGGAAAUCUGGGCCAGGCAGGCAUCAAAAGAAAUAGUCUUGCGCUCAACCUGAAAGUCUGUAAUCAUUUUAAGGGUA [A66G A114U] was 0.08.
The value for GUUAACGGUCAUAGGCCAUGGAAACUAGGAGCACCAUUUCGCUGCCAGUGAAGAAAUGAACAAAGGAAAUCUGGGCCAGGCAGGCAUCAAAAGAAAUAGUCUUGCGCUCUACCAGAAAGUCUGUAAUCAUUUUAAGGGUA [A66G A110U] was 0.78; that for GUUAACGGUCAUAGGCCAUGGAAACUAGGAGCACCAUUUCGCUGCCAGUGAAGAAAUGAACAAAGGAAAUCUGGGACAGGCAGGCAUCAAAAGAAAUAGUCUUGCGCUCAACCAGAAAGUCUGUAAUCAUUUUAAGGGUA [A66G C76A] was 0.23.
In the case of GUUAACGGUCAUAGGCCAUGGAAACUAGGAGCACCAUUUCGCUGCCAGUGAAGAAAUGAACAAAGGAAAUCUGGGCCAGGCAGGCCUCAAAAGAAAUAGUCUUGCGCUCAACCAGAAAGUCUGUAAUCAUUUUAAGGGUA [A66G A86C] it was 1.45.
GUUAACGGUCAUAGGCCAUGGAAACUAGGAGCACCAUUUCGCUGCCAGUGAAGAAAUGAACAAAGGAAAUCUGGGCCAGGCAGGCGUCAAAAGAAAUAGUCUUGCGCUCAACCAGAAAGUCUGUAAUCAUUUUAAGGGUA [A66G A86G]: the self-cleavage came out at 1.16.
Take GUUAACGGUCAUAGGCCAUGGAAACUAGGAGCACCAUUUCGCUGCCAGUGAAGAAAUGAACAAAGGAAAUCUGGGCCAGGCAGGCAUCAAAAGGAAUAGUCUUGCGCUCAACCAGAAAGUCUGUAAUCAUUUUAAGGGUA [A66G A94G]: the self-cleavage was 1.55.
In the case of GUUAACGGUCAUAGGCCAUGGAAACUAGGAGCACCAUUUCGCUGCCAGUGAAGAAAUGAACAAAGGAAAUCUGGGCCAGGCAGGCAUCAAAAGAAAUAGUCUUGCGCUCAACCAGAAAGUCUGUAAUCAUUUUAUGGGUA [A66G A135U] it was 1.08; in that of GUUAACGGUCAUAGGCCAUGGAAACUAGGAGCACCAUUUCGCUGCCAGUGAAGAAAUGAACAAAGGAAAUCUGGGCCAGGCAGGCAUCAAAAGAAAUAGUCUUGCGCUCAACCAGAAAGUCUGUGAUCAUUUUAAGGGUA [A66G A125G], 0.25.
The value for GUUAACGGUCAUAGGCCAUGGAAACUAGGAGCACCAUUUCGCUGCCAGUGAAGAAAUGAACAAAGGAAAUCUGGGCCAGGCAGGCAUCAAAAGAGAUAGUCUUGCGCUCAACCAGAAAGUCUGUAAUCAUUUUAAGGGUA [A66G A95G] was 1.54; that for GUUAACGGUCAUAGGCCAUGGAAACUAGGAGCACCAUUUCGCUGCCAGUGAAGAAAUGAACAAAGGAAAUCUGGGCCAGGCAGGCAUCAAAAGACAUAGUCUUGCGCUCAACCAGAAAGUCUGUAAUCAUUUUAAGGGUA [A66G A95C] was 1.5; that for GUUAACGGUCAUAGGCCAUGGAAACUAGGAGCACCAUUUCGCUGCCAGUGAAGAAAUGAACAAAGGAAAUCUGGGCCAGGCAGGCAUCAAAAGAUAUAGUCUUGCGCUCAACCAGAAAGUCUGUAAUCAUUUUAAGGGUA [A66G A95U] was 0.2.
As for GUUAACGGUCAUAGGCCAUGGAAACUAGGAGCACCAUUUCGCUGCCAGUGAAGAAAUGAACAAAGGAAAUCUGGGCCAGGCAGGCAUCAAAAGAAAUAGUCUUGAGCUCAACCAGAAAGUCUGUAAUCAUUUUAAGGGUA [A66G C105A], the self-cleavage stood at 0.05.
In the case of GUUAACGGUCAUAGGCCAUGGAAACUAGGAGCACCAUUUCGCUGCCAGUGAAGAAAUGAACAAAGGAAAUCUGGGCCAGGCAGGCAUCAAAAGAAAUAGCCUUGCGCUCAACCAGAAAGUCUGUAAUCAUUUUAAGGGUA [A66G U100C] it was 2.05; in that of GUUAACGGUCAUAGGCCAUGGAAACUAGGAGCACCAUUUCGCUGCCAGUGAAGAAAUGAACAAAGGAAAUCUGGGCCAGGCAGGCAUCAAAAGAAAUAGACUUGCGCUCAACCAGAAAGUCUGUAAUCAUUUUAAGGGUA [A66G U100A], 0.58.
As to GUUAACGGUCAUAGGCCAUGGAAACUAGGAGCACCAUUUCGCUGCCAGUGAAGAAAUGAACAAAGGAAAUCUGGGCCAGGCAGGCACCAAAAGAAAUAGUCUUGCGCUCAACCAGAAAGUCUGUAAUCAUUUUAAGGGUA [A66G U87C], the self-cleavage was determined as 0.77.
As to GUUAACGGUCAUAGGCCAUGGAAACUAGGAGCACCAUUUCGCUGCCAGUGAAGAAAUGAACAAAGGAAAUCUGGGCCAGGCAGGCAACAAAAGAAAUAGUCUUGCGCUCAACCAGAAAGUCUGUAAUCAUUUUAAGGGUA [A66G U87A], the self-cleavage was 1.15.
Take GUUAACGGUCAUAGGCCAUGGAAACUAGGAGCACCAUUUCGCUGCCAGUGAAGAAAUGAACAAAGGAAAUCUGGGCCAGGCAGGCAUCAAAAGAAAAAGUCUUGCGCUCAACCAGAAAGUCUGUAAUCAUUUUAAGGGUA [A66G U97A]: the self-cleavage turned out to be 2.11.
With GUUAACGGUCAUAGGCCAUGGAAACUAGGAGCACCAUUUCGCUGCCAGUGAAGAAAUGAACAAAGGAAAUCUGGGCCAGGCAGGCAUCAAAAGAAACAGUCUUGCGCUCAACCAGAAAGUCUGUAAUCAUUUUAAGGGUA [A66G U97C], the self-cleavage was found to be 1.98.
On to GUUAACGGUCAUAGGCCAUGGAAACUAGGAGCACCAUUUCGCUGCCAGUGAAGAAAUGAACAAAGGAAAUCUGGGCCAGGCAUGCAUCAAAAGAAAUAGUCUUGCGCUCAACCAGAAAGUCUGUAAUCAUUUUAAGGGUA [A66G G83U], for which the self-cleavage was 0.61.
Consider GUUAACGGUCAUAGGCCAUGGAAACUAGGAGCACCAUUUCGCUGCCAGUGAAGAAAUGAACAAAGGAAAUCUGGGCCAGGCACGCAUCAAAAGAAAUAGUCUUGCGCUCAACCAGAAAGUCUGUAAUCAUUUUAAGGGUA [A66G G83C], for which the self-cleavage came to 0.2.
The value for GUUAACGGUCAUAGGCCAUGGAAACUAGGAGCACCAUUUCGCUGCCAGUGAAGAAAUGAACAAAGGAAAUCUGGGCCAGGCAGGCAUCAAAGGAAAUAGUCUUGCGCUCAACCAGAAAGUCUGUAAUCAUUUUAAGGGUA [A66G A92G] was 0.74.
Take GUUAACGGUCAUAGGCCAUGGAAACUAGGAGCACCAUUUCGCUGCCAGUGAAGAAAUGAACAAAGGAAAUCUGGGCCAGGCAGGCAUCAAAAGAAAUAGUCUUGCGCUCAACCAGAAAGUCUGUAAUCAUUUUAAGAGUA [A66G G137A]: the self-cleavage is 2.07.
The value for GUUAACGGUCAUAGGCCAUGGAAACUAGGAGCACCAUUUCGCUGCCAGUGAAGAAAUGAACAAAGGAAAUCUGGGCCAGGCAGGCAUCAAAAGAAAUAGUCUUGCGCUCAGCCAGAAAGUCUGUAAUCAUUUUAAGGGUA [A66G A111G] was 0.02; that for GUUAACGGUCAUAGGCCAUGGAAACUAGGAGCACCAUUUCGCUGCCAGUGAAGAAAUGAACAAAGGAAAUCUGGGCCAGGCAGGCAUCAAAAGAAAUAGUCUUGCGCUCAACCAGAAAGUCUGUAAUCUUUUUAAGGGUA [A66G A129U] was 1.47; that for GUUAACGGUCAUAGGCCAUGGAAACUAGGAGCACCAUUUCGCUGCCAGUGAAGAAAUGAACAAAGGAAAUCUGGGCCAGGCAGGCAUCAAAAGAAAUGGUCUUGCGCUCAACCAGAAAGUCUGUAAUCAUUUUAAGGGUA [A66G A98G] was 0.38.
For GUUAACGGUCAUAGGCCAUGGAAACUAGGAGCACCAUUUCGCUGCCAGUGAAGAAAUGAACAAAGGAAAUCUGGGCCAGGCAGGCAUCAAAAGAAAUAGUCUUGCGCUCAACCAGAAAGUCUGUAAUCAUUUUCAGGGUA [A66G A134C], the self-cleavage stood at 1.71.
Turning to GUUAACGGUCAUAGGCCAUGGAAACUAGGAGCACCAUUUCGCUGCCAGUGAAGAAAUGAACAAAGGAAAUCUGGGCCAGGCAGGCAUCAAAAGAAAUAGUCUUGCGCUCAACCAGAAAGUCUGUAAUCAUUUUGAGGGUA [A66G A134G], the self-cleavage came out at 1.66.
In the case of GUUAACGGUCAUAGGCCAUGGAAACUAGGAGCACCAUUUCGCUGCCAGUGAAGAAAUGAACAAAGGAAAUCUGGGCCAGGCAGGCAUCAAAAGAAAUAGUCUUGCGCUCAACCAGAAAGUCUGUAAUCAUUUUAAGGAUA [A66G G138A], the self-cleavage came to 1.26.
The value for GUUAACGGUCAUAGGCCAUGGAAACUAGGAGCACCAUUUCGCUGCCAGUGAAGAAAUGAACAAAGGAAAUCUGGGCCAGGGAGGCAUCAAAAGAAAUAGUCUUGCGCUCAACCAGAAAGUCUGUAAUCAUUUUAAGGGUA [A66G C81G] was 0.18.
As to GUUAACGGUCAUAGGCCAUGGAAACUAGGAGCACCAUUUCGCUGCCAGUGAAGAAAUGAACAAAGGAAAUCUGGGCCAGGCAGGCAUCAAAAGAAAUAGUCUUGCGCUCAACCAGUAAGUCUGUAAUCAUUUUAAGGGUA [A66G A116U], the self-cleavage was determined as 0.7.
GUUAACGGUCAUAGGCCAUGGAAACUAGGAGCACCAUUUCGCUGCCAGUGAAGAAAUGAACAAAGGAAAUCUGGGCCAGGCAGGCAUCAAAAGAAAUAGUCUUGCGCUCAACCAGAAAGUCUGUAGUCAUUUUAAGGGUA [A66G A126G]: the self-cleavage stood at 1.07.
The value for GUUAACGGUCAUAGGCCAUGGAAACUAGGAGCACCAUUUCGCUGCCAGUGAAGAAAUGAACAAAGGAAAUCUGGGCCAGGCAGGCAUCAAAAGAAAUAGUCAUGCGCUCAACCAGAAAGUCUGUAAUCAUUUUAAGGGUA [A66G U102A] was 0.89.
The value for GUUAACGGUCAUAGGCCAUGGAAACUAGGAGCACCAUUUCGCUGCCAGUGAAGAAAUGAACAAAGGAAACCUGGGCCAGGCAGGCAUCAAAAGAAAUAGUCUUGCGCUCAACCAGAAAGUCUGUAAUCAUUUUAAGGGUA [A66G U70C] was 0.75; that for GUUAACGGUCAUAGGCCAUGGAAACUAGGAGCACCAUUUCGCUGCCAGUGAAGAAAUGAACAAAGGAAAUCUGGGCCAGGCAGGCAUCAUAAGAAAUAGUCUUGCGCUCAACCAGAAAGUCUGUAAUCAUUUUAAGGGUA [A66G A90U] was 1.31; that for GUUAACGGUCAUAGGCCAUGGAAACUAGGAGCACCAUUUCGCUGCCAGUGAAGAAAUGAACAAAGGAAAUCUGGGCCAGGCAGGCAUCACAAGAAAUAGUCUUGCGCUCAACCAGAAAGUCUGUAAUCAUUUUAAGGGUA [A66G A90C] was 0.17.

(Values after the RNAGym collection of RNA variant scans (doi:10.7554/elife.90254).)
